Columns and labels:
human Nectin-4 = biological target: T1, human Nectin-4 (Homo sapiens, UniProt Q96NY8); test: Binding to human Nectin-4 by SPR; details: for ka: SPR association constant; for kd: SPR dissociation constant; for Kd: SPR, human IgG1 isotype antibodies
T1 sequence (Q96NY8 32-510): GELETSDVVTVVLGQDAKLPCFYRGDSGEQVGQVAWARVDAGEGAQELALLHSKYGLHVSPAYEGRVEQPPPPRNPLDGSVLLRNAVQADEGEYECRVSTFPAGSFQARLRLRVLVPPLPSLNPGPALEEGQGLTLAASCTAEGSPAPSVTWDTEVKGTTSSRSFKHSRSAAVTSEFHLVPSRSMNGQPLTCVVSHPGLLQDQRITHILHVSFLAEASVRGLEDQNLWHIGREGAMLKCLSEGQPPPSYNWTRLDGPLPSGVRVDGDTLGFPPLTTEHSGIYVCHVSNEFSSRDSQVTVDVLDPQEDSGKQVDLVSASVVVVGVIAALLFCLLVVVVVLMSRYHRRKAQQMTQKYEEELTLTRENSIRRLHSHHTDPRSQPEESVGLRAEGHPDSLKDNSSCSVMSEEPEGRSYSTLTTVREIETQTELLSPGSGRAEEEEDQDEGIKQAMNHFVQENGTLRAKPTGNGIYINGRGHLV
Method in brief: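 Humanized variants expressed and purified as human IgG1 and tested by SPR against human Nectin-4. Association (ka, 1/Ms) and dissociation (kd, 1/s) rate constants were fitted, and affinity is reported as KD (nM).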

[1] = biological target: T2, human Nectin-4 expressed on cells (human, UniProt Q96NY8 32-510); test: cell-based or functional assay
T2 sequence: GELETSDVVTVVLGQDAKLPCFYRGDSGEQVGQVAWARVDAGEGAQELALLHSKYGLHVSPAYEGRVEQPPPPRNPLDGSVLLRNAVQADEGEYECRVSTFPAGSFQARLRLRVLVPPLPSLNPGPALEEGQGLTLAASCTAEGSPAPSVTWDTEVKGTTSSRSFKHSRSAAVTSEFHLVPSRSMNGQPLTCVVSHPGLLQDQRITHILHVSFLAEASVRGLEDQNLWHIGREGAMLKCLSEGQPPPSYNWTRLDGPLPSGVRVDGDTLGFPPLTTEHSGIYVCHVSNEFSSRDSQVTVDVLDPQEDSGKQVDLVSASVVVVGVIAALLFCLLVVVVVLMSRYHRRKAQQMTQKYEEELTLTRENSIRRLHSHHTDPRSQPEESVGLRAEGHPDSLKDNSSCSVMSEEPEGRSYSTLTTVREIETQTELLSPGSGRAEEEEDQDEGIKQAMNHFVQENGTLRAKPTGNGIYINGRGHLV

[2] = biological target: T2, human Nectin-4 expressed on cells; test: flow cytometry on SUM190 cells, MedFI at saturation
Procedure: The humanized antibodies in Table 3 of Example 3 and in Table 6 of Example 5 were cloned, produced and purified, then tested for binding to Nectin-4 expressing cells by flow cytometry. Binding of humanized variants in human IgG1 format was determined on the SUM190 cell line expressing high levels of Nectin-4.

[3] = biological target: T3, human Nectin-4 Mutant 7bis (human, UniProt Q96NY8 32-510); test: binding to HEK293T cells expressing Nectin-4 mutant; '-' means association does not occur
T3 construct: Expressed on transfected HEK293T cells; also called A72P/G73N/K197T/S199A
T3 chain: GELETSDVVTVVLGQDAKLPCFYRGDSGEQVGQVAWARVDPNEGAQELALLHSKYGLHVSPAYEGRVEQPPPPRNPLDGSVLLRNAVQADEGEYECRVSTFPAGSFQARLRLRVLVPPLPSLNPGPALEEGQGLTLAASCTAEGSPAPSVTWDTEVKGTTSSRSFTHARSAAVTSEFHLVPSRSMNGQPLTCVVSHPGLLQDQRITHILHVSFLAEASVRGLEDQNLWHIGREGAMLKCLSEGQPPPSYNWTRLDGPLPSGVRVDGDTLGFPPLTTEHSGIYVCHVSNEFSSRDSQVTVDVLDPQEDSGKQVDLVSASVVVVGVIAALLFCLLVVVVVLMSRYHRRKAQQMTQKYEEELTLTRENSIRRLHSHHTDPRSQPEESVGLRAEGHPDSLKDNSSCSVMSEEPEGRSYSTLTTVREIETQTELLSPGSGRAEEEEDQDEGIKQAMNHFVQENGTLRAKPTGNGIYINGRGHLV

human Nectin-4 Mutant 7 = biological target: T4, human Nectin-4 Mutant 7 (human, UniProt Q96NY8 32-510); test: as above
T4 construct: Expressed on transfected HEK293T cells; also called S195A/K197T/S199A
T4 chain: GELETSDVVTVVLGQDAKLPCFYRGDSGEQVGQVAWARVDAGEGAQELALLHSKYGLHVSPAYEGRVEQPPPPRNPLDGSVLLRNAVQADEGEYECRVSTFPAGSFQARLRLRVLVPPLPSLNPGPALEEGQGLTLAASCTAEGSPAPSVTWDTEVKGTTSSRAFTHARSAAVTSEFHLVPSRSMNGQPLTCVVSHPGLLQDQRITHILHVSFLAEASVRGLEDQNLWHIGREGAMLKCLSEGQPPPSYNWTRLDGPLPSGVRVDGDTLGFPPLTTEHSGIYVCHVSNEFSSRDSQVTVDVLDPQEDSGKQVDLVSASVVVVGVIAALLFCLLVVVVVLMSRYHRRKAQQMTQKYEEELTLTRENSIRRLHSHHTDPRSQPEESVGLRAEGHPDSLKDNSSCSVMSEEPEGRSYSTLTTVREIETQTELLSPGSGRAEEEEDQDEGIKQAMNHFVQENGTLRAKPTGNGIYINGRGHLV

[4] = biological target: T5, cynomolgus Nectin-4 protein expressed on CHO cells (cynomolgus, UniProt Q96NY8 32-510 (human entry)); test: flow cytometry on CHO cells expressing cynomolgus Nectin-4, Median MFI (PE)
T5 construct: also called Cyno Nectin-4 V5
T5 chain: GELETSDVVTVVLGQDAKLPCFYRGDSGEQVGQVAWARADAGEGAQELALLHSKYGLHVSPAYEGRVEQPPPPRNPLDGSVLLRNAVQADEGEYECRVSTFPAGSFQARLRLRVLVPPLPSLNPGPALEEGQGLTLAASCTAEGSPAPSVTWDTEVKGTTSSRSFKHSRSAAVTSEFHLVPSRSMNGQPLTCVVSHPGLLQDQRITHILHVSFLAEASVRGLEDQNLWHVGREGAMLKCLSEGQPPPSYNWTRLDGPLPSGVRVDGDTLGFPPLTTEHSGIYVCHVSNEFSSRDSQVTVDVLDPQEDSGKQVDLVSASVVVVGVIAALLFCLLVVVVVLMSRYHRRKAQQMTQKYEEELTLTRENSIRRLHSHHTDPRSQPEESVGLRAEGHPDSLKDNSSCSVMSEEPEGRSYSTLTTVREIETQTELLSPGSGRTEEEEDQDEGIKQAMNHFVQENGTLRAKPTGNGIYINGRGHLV
Procedure: Anti-Nectin-4 antibodies were tested by flow cytometry for binding to different CHO cell lines made to express respectively the mouse, cynomolgus and rat Nectin-4 protein (including an N-terminal V5 tag not shown in the sequences below).

B1: 5E7 (antibody, V domains shown)
VH: QVQLQQPGAELVKPGASVKLSCKASGYIFTSYWMHWVKQRPGQGLEWIGEIDPSDSYTNYNQKFKGKATLTLDKSSSTTYMQLSSLTSEDSAVYYCVRGYGNYGDYWGQGTTLTVSSASTKGP
VL: DVVMTQAAFSNPVTLGTSASISCRSSKSLLHSNGITYLYWYLQKPGQSPQLLIYQMSNLASGVPDRFSSSGSGTDFTLRISRVEAEDVGVYYCAQNLELPWTFGGGTKLEIKRTVAAP
ka (human Nectin-4; first set (Table 4)): 480000 ± 1e-05 M⁻¹ s⁻¹ | ka (human Nectin-4; second set (Table 7)): 480000 ± 1e-05 M⁻¹ s⁻¹ | kd (human Nectin-4; first set (Table 4)): 0.0027 ± 0.0003 s⁻¹ | kd (human Nectin-4; second set (Table 7)): 0.0027 ± 0.0003 s⁻¹ | Kd (human Nectin-4; first set (Table 4)): 5.9 ± 1.2 nM | Kd (human Nectin-4; second set (Table 7)): 5.9 nM

B2: chimeric parental 5E7 antibody (antibody, V domains shown)
VH: QVQLQQPGAELVKPGASVKLSCKASGYIFTSYWMHWVKQRPGQGLEWIGEIDPSDSYTNYNQKFKGKATLTLDKSSSTTYMQLSSLTSEDSAVYYCVRGYGNYGDYWGQGTTLTVSS
VL: DVVMTQAAFSNPVTLGTSASISCRSSKSLLHSNGITYLYWYLQKPGQSPQLLIYQMSNLASGVPDRFSSSGSGTDFTLRISRVEAEDVGVYYCAQNLELPWTFGGGTKLEIKR
notes: Chimeric antibody, murine variable domains with human constant regions; also called ch5E7; CHG1-M-1N4-5E7
internalization efficiency on MDA-MB-468, normalized to chimeric parental antibody (Fab-ZAP, CTG), first column [1]: 100 % of chimeric parental | internalization efficiency on MDA-MB-468, normalized to chimeric parental antibody (Fab-ZAP, CTG), second column [1]: 100 % of chimeric parental | Max MedFi [2]: 25200 MedFI | binding result [3]: no binding | binding result (human Nectin-4 Mutant 7): no binding | EC50 (read off the curve) [4]: ~0.03 µg/mL

Source: US20250297004A1, “NECTIN-4 BINDING AGENTS” (INNATE PHARMA, priority 2022, published 2025)
